Data published in US20190085055A1.
Values belong to the substance of their own block, whether it stands above or below them.

How the values were obtained:
[1] = biological target: D3H44 light chain Q124E_Q160E_T178D; assay: LCCA: H1 co-expressed with L1 and L2, SPR read-out of light chain tags; competing chain L2
[2] = biological target: D3H44 light chain Q124E_Q160E_T178D; assay: LCCA (SPR), competitor L2 Q160K_T178R
[3] = biological target: D3H44 light chain Q160K_T178R (Table 8); assay: LCCA (SPR), competitor L1 Q124E_Q160E_T178D
[4] = biological target: D3H44 light chain Q160K_T178R (Table 8); assay: LCCA: H1 co-expressed with L1 and L2, SPR read-out of light chain tags; competing chain L1
[5] = biological target: D3H44 light chain Q124E_Q160E_T178D; assay: LCCA: H2 co-expressed with L1 and L2, SPR read-out of light chain tags; competing chain L2
[6] = biological target: D3H44 light chain Q160K_T178R (Table 8); assay: LCCA: H2 co-expressed with L1 and L2, SPR read-out of light chain tags; competing chain L1
D3H44 light chain Q38R [7] = assay: LCCA (SPR), competitor L1 Q38E
D3H44 light chain F98A = assay: LCCA (SPR), competitor L1 Q38E
D3H44 light chain Q38R [8] = assay: LCCA (SPR), competitor L1 Q38D
D3H44 light chain Q38R [9] = assay: LCCA: H2 co-expressed with L1 and L2, SPR read-out of light chain tags; competing chain L2
D3H44 light chain Q38R [10] = assay: LCCA (SPR), competitor L2 Q38D

H1 Readout (H1-L1) [1]: 93
H1 L1 of H1 L1:H1 L2 (screen) [2]: 86.7
H1 L1 of H1 L1:H1 L2 (verification) [2]: 97
H1 L2 of H1 L1:H1 L2 (screen) [3]: 1.4
H1 L2 of H1 L1:H1 L2 (verification) [3]: 0.9
H1 Readout (H1-L2) [4]: 1
Substance: D3H44 heavy chain (Fab format) D146G_Q179R

H2 L1 of H2 L2:H2 L1 (screen) [2]: 7.2
H2 L1 of H2 L2:H2 L1 (verification) [2]: 20
H2 L2 of H2 L2:H2 L1 (screen) [3]: 71
H2 L2 of H2 L2:H2 L1 (verification) [3]: 74.3
H2 Readout (H2-L1) [5]: 24
H2 Readout (H2-L2) [6]: 83
Substance: D3H44 heavy chain (Fab format) K145T_Q179D_S188L

H1 L2 of H1 L1:H1 L2 (screen) (D3H44 light chain Q38R [7]): 22.7
H1 L2 of H1 L1:H1 L2 (verification) (D3H44 light chain Q38R [7]): 8.4
H1 L2 of H1 L1:H1 L2 (screen) (D3H44 light chain F98A): 4.3
H1 L2 of H1 L1:H1 L2 (verification) (D3H44 light chain F98A): 4
H1 L2 of H1 L1:H1 L2 (screen) (D3H44 light chain Q38R [8]): 10.8
H2 Readout (H2-L1) (D3H44 light chain Q38R [9]): 1
H2 L1 of H2 L2:H2 L1 (verification) (D3H44 light chain Q38R [10]): 11.1
Substance: D3H44 heavy chain (Fab format) Q39R
